# Changes are numbered by the printed parent chain.
# B1: PD1AB-1 (antibody, V domains shown)
# VH: EVQLVQSGAEVKKPGATVKISCKVSGFNIKDTYMHWVQQAPGKGLEWMGRIDPANGDRKYDPKFQGRVTITADTSTDTAYMELSSLRSEDTAVYYCARSGPVYYYGSSYVMDYWGQGTTVTVSS
# VL: DIVMTQSPDSLAVSLGERATINCKSGQSVLYSSNQKNFLAWYQQKPGQPPKLLIYWASTRESGVPDRFSGSGSGTDFTLTISSLQAEDVAVYYCHQYLYSWTFGQGTKLEIKR
# notes: also called parental clone PD1AB-1; HC/LC TOPO vector 3015/3017
# B2: PD1AB-2 (antibody, V domains shown)
# VH: B1 VH
# VL: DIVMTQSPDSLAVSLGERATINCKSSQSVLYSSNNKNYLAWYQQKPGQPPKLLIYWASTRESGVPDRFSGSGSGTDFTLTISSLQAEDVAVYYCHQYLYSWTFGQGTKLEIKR
# notes: also called HC/LC TOPO vector 3015/3193
# B3: PD1AB-4 (antibody, V domains shown)
# VH: B1 VH with D77N
# VL: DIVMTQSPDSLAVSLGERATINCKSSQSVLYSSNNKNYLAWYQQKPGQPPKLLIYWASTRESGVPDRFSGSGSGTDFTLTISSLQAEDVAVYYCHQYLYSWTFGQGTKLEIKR
# notes: also called HC/LC TOPO vector 3653/3193
# B4: PD1AB-6 (antibody, IgG1, V domains shown)
# VH: B1 VH with V24A
# VL: B1 VL
# notes: also called HC/LC TOPO vector 3650/3017
# B5: PD1AB-3 (antibody, V domains shown)
# VH: B1 VH with D77N
# VL: B1 VL with S83N
# notes: also called HC/LC TOPO vector 3653/3646
# B6: PD1AB-5 (antibody, V domains shown)
# VH: B1 VH with V24A
# VL: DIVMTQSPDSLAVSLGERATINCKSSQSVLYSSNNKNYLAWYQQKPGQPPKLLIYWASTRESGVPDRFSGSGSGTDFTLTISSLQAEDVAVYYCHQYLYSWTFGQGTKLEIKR
# notes: also called HC/LC TOPO vector 3650/3193
# How the values were obtained:
# [1] = target: T1, human PD-1 (soluble / purified antigen, construct not stated) (human, UniProt Q15116 25-170, limits assumed); assay: KinExA, n = 2
# T1 construct: also called soluble antigen
# [2] = target: T2, human PD-1 expressed on cells (human, UniProt Q15116 25-198); assay: cell-based or functional assay
# [3] = target: T2, human PD-1 expressed on cells; assay: cell-based or functional assay; remark: listed apart in the source
# [4] = target: T2, human PD-1 expressed on cells; assay: cell-based or functional assay; remark: listed apart in the source
# [5] = target: T1, human PD-1 (soluble / purified antigen, …); assay: Biacore (SPR), n = 4; Biacore, n = 4 (not KinExA 575 pM)
# [6] = target: T2, human PD-1 expressed on cells; assay: competition with DyL650-PD-L1 for binding to cell surface human PD-1 (CHO), flow cytometry
# [7] = target: T1, human PD-1 (soluble / purified antigen, …); assay: KinExA, n = 1
# [8] = target: T1, human PD-1 (soluble / purified antigen, …); assay: Biacore (SPR), n = 2
# murine PD-1 = target: T3, murine PD-1 (mouse, UniProt Q02242 25-167, limits assumed); assay: assay not described; stated in the discussion of the crystal structure
# T3 construct: also called mouse PD-1
# T3 sequence (looked up): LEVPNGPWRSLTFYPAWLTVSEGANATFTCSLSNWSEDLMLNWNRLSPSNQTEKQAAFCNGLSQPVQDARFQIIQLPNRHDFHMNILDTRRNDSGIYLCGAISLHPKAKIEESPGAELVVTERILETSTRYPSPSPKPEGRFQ
# T1 sequence (Q15116 25-170 limits assumed): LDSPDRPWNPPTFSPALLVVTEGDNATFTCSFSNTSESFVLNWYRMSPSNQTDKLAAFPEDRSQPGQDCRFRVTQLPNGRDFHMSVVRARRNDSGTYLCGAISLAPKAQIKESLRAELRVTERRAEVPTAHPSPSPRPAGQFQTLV
# T2 sequence (Q15116 25-198 limits assumed): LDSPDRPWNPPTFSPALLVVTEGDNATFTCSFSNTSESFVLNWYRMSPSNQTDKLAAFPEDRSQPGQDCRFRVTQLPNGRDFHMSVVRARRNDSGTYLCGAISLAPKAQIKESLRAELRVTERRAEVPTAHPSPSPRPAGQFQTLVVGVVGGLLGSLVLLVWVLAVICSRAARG
binder,measurement,setting,value
B1,Kd,[1],0.575 nM
same,CD4+ T cell IL-2 inhibition (EC50),[2],22 nM
same,"IFN-γ EC50, PBMC reactivation assay",[3],46 nM
same,"IFN-γ EC75, PBMC reactivation assay",[3],85 nM
same,"IL-2 EC50, PBMC reactivation assay",[3],21 nM
same,"IL-2 EC75, PBMC reactivation assay",[3],40 nM
same,"IL-17 EC50, PBMC reactivation assay",[3],41 nM
same,"IL-17 EC75, PBMC reactivation assay",[3],65 nM
same,"IL-2 EC50, human whole blood assay",[4],8.3 nM
same,"hIFN-γ EC50, human whole blood assay",[4],5.9 nM
same,"hIL-17 EC50, human whole blood assay",[4],7.2 nM
same,Kd,[5],5 nM
same,IC50,[6],> 100 nM
B2,Kd,[7],0.425 nM
same,Kd,[8],5 nM
same,CD4+ T cell IL-2 inhibition (EC50),[2],27 nM
same,"IFN-γ EC50, PBMC reactivation assay",[3],58 nM
same,"IFN-γ EC75, PBMC reactivation assay",[3],91 nM
same,"IL-2 EC50, PBMC reactivation assay",[3],24 nM
same,"IL-2 EC75, PBMC reactivation assay",[3],42 nM
same,"IL-17 EC50, PBMC reactivation assay",[3],36 nM
same,"IL-17 EC75, PBMC reactivation assay",[3],59 nM
same,"IL-2 EC50, human whole blood assay",[4],8.4 nM
same,"hIFN-γ EC50, human whole blood assay",[4],7.6 nM
same,"hIL-17 EC50, human whole blood assay",[4],8.9 nM
same,IC50,[6],> 100 nM
B3,Kd,[7],0.5 nM
same,Kd,[8],6 nM
same,CD4+ T cell IL-2 inhibition (EC50),[2],23 nM
same,"IFN-γ EC50, PBMC reactivation assay",[3],34 nM
same,"IFN-γ EC75, PBMC reactivation assay",[3],64 nM
same,"IL-2 EC50, PBMC reactivation assay",[3],20 nM
same,"IL-2 EC75, PBMC reactivation assay",[3],39 nM
same,"IL-17 EC50, PBMC reactivation assay",[3],27 nM
same,"IL-17 EC75, PBMC reactivation assay",[3],52 nM
same,"IL-2 EC50, human whole blood assay",[4],10.2 nM
same,"hIFN-γ EC50, human whole blood assay",[4],9.2 nM
same,"hIL-17 EC50, human whole blood assay",[4],9.9 nM
same,IC50,[6],> 100 nM
B4,Kd,[7],0.45 nM
same,Kd,[8],6 nM
same,CD4+ T cell IL-2 inhibition (EC50),[2],16 nM
same,"IFN-γ EC50, PBMC reactivation assay",[3],36 nM
same,"IFN-γ EC75, PBMC reactivation assay",[3],67 nM
same,"IL-2 EC50, PBMC reactivation assay",[3],24 nM
same,"IL-2 EC75, PBMC reactivation assay",[3],33 nM
same,"IL-17 EC50, PBMC reactivation assay",[3],37 nM
same,"IL-17 EC75, PBMC reactivation assay",[3],56 nM
same,"IL-2 EC50, human whole blood assay",[4],4 nM
same,"hIFN-γ EC50, human whole blood assay",[4],4.1 nM
same,"hIL-17 EC50, human whole blood assay",[4],3.6 nM
same,binding result,murine PD-1,no binding
same,IC50,[6],> 100 nM
B5,Kd,[7],0.35 nM
same,Kd,[8],7 nM
same,CD4+ T cell IL-2 inhibition (EC50),[2],21 nM
same,"IL-2 EC50, PBMC reactivation assay",[3],24 nM
same,"IL-2 EC75, PBMC reactivation assay",[3],46 nM
same,IC50,[6],> 100 nM
B6,Kd,[7],0.4 nM
same,Kd,[8],6 nM
same,CD4+ T cell IL-2 inhibition (EC50),[2],15 nM
same,"IL-2 EC50, PBMC reactivation assay",[3],36 nM
same,"IL-2 EC75, PBMC reactivation assay",[3],58 nM
same,IC50,[6],> 100 nM

# Reference: patent publication US20180289802A1 (CELGENE, published 2018)
